Results taken from patent US20130071921A1 (Pfizer, published 2013).
Where a chain is given by its changes, count along the chain named.

T1: recombinant mouse Dkk-2 (R&D systems Cat No. 2435-DK/CF) (mouse, UniProt Q9QYZ8 34-259, limits assumed)
T1 construct: Bought; also called mDkk-2
T1 sequence (looked up): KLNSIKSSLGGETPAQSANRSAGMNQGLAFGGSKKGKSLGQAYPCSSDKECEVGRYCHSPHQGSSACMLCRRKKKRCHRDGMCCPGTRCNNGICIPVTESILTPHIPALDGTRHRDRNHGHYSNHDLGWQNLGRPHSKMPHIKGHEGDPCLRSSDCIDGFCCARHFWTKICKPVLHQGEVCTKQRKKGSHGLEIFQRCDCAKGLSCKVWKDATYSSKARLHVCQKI

T2: Recombinant human Dkk-1 (R&D Systems cat no. 1096-DK/CF), 10xHis tag at the C terminal (human, UniProt O94907 32-266)
T2 construct: the actual N-terminus of the purified protein is marked in bold italic after residue 30, but the mark is an image lost in the text; also called rhuDkk-1; hDkk-1
T2 sequence: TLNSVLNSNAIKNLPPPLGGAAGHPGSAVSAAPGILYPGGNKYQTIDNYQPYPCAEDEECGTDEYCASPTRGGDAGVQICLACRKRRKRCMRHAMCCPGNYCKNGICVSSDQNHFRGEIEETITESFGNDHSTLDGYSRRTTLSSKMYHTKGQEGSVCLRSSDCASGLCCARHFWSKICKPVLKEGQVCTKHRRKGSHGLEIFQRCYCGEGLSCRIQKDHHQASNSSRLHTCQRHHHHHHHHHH

T3: recombinant mouse Dkk-1 (R&D systems Cat No. 1765-DK/CF) (mouse, UniProt O54908 32-272)
T3 construct: Bought
T3 sequence (looked up): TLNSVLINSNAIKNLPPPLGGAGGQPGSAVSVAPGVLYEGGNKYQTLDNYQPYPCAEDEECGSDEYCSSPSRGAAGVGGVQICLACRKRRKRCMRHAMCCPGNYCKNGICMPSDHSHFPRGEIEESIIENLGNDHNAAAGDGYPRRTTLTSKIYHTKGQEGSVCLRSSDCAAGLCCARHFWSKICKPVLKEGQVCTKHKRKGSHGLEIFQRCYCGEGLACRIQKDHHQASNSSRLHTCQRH

B1: JC18 wildtype (mouse) monoclonal antibody (antibody, mouse IgG1, V domains shown)
VH: EVKLVESGGGLVKPGGSLKLSCAASGFTFSNYAMSWVRQTPEKRLEWVASISGGGDTYYPDSVKGRFTISRDNVRNILYLQMSSLRSEDTAMYYCATSLENYAMDYWGQGTSITVSS
VL: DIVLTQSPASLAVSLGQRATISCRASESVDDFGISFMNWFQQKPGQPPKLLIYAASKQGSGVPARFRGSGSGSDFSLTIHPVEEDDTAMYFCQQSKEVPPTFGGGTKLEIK
notes: also called muMabJC18; MabJC18
B2: 4E8.33L (antibody, V domains shown)
VH: EVQLVESGGGLVQPGGSLRLSCAASGFTFSSYAISWVRQAPGKGLEWVASVSGWLDTYYPDSVKGRFTISRDNAKNSLYLQMNSLRAEDTAVYYCATSLENYAFDYWGQGTTVTVSS
VL: EIVLTQSPATLSLSPGERATLSCRASESVDDFGISFINWYQQKPGQAPRLLIYAGSKQGSGIPARFSGSGSGTDFTLTISSLEPEDFAVYYCQQLKEVPPTFGGGTKVEIK
B3: 36H.33L (antibody, V domains shown)
VH: B2 VH with L55F, E100R
VL: B2 VL
B4: SL3.4E4 (Fab, V domains shown)
VH: B2 VH with W54G, L55G, D56R
VL: B2 VL with I37M, G55A, L95S, E97D
notes: tested as Fab (E. coli lysate, screening mode); human kappa CL and IgG2 CH1 not included here
B5: SL3.4F1 (Fab, V domains shown)
VH: B2 VH with W54G, L55G, D56R
VL: B2 VL with I37M, G55A, L95S, P100S
notes: as for B4
B6: SL3.4F5 (Fab, V domains shown)
VH: B2 VH with W54G, L55G, D56R
VL: B2 VL with I37M, G55A, L95G
notes: as for B4
B7: L2.4E1 (Fab, V domains shown)
VH: EVQLVESGGGLVQPGGSLRLSCAASGFTFSSYAISWVRQAPGKGLEWVASVSGHGVWTYYPDSVKGRFTISRDNAKNSLYLQMNSLRAEDTAVYYCATSLENYAFDYWGQGTTVTVSS
VL: B2 VL with I37M, G55A, L95S
notes: G55# and L56# read as gaps; tested as Fab (E. coli lysate, screening mode); human kappa CL and IgG2 CH1 not included here
B8: 2E11.33L (antibody, V domains shown)
VH: EVQLVESGGGLVQPGGSLRLSCAASGFTFSSYAISWVRQAPGKGLEWVASVSGTGLGFQTYYPDSVKGRFTISRDNAKNSLYLQMNSLRAEDTAVYYCATSLRNYAFDYWGQGTTVTVSS
VL: B2 VL
B9: 4F10.33L (antibody, V domains shown)
VH: B8 VH with R103K
VL: B2 VL
B10: L2.P4.D1 (Fab, V domains shown)
VH: B8 VH with R103D
VL: B2 VL with I37M, G55A, L95S
notes: as for B4

Key:
[1] = target: T1, recombinant mouse Dkk-2 (R&D systems …); experiment: ELISA, plate-coated antigen
Experimental: Dkk-1 specific antibodies were detected using the following ELISA based method. rhuDkk-1 protein (R&D systems cat no. 1096 DK/CF) was diluted to 1 ug/ml in coating buffer (Sigma carbonate/bicarbonate coating buffer pH 9.6 Cat No. C-3041 made up according to manufacturers instructions). 100 uls of Dkk-1 was added per well to Nunc Maxisorp 96 well plates and incubated overnight at 4° C. Wells were washed 4× with 250 uls/well of wash buffer (0.05% (v/v) Tween-20 (Sigma Cat no. P2287) in dPBS without Ca/Mg++ (Sigma Cat No. D8537)) then blocked with 200 uls/well of blocking buffer (1% PVA (Sigma cat no. 363170) (weight/volume) in dPBS (Sigma cat no.D8537)) for 2 hrs at room temperature. Blocking buffer was then removed by rapid decanting. […]
(§1) Binding of the test antibody to Dkk was determined by addition of a secondary antibody specific for the antibody species. […] Once developed, the plate absorbance was measured at 405 and 490 nm. Absorbance values were presented as the difference between absorbance at both wavelengths.
The ability of JC18 to bind to other species Dkk proteins was assessed using the ELISA protocol described above with the exception that plates were also coated with recombinant rat Dkk-1(R&D systems Cat No. 4010-DK/CF), mouse Dkk-1 (R&D systems Cat No. 1765-DK/CF), mouse Dkk-2 (R&D systems Cat No. 2435-DK/CF), and mouse Dkk-4 (R&D systems Cat No. 3105-DK/CF).

[2] = target: T2, Recombinant human Dkk-1 (R&D Systems …); experiment: ELISA, plate coated with human DKK-1 at 1.0 ug/ml, JC18 titrated, OD read
Experimental: Dkk-1 specific antibodies were detected using the following ELISA based method. rhuDkk-1 protein (R&D systems cat no. 1096 DK/CF) was diluted to 1 ug/ml in coating buffer (Sigma carbonate/bicarbonate coating buffer pH 9.6 Cat No. C-3041 made up according to manufacturers instructions). 100 uls of Dkk-1 was added per well to Nunc Maxisorp 96 well plates and incubated overnight at 4° C. Wells were washed 4× with 250 uls/well of wash buffer (0.05% (v/v) Tween-20 (Sigma Cat no. P2287) in dPBS without Ca/Mg++ (Sigma Cat No. D8537)) then blocked with 200 uls/well of blocking buffer (1% PVA (Sigma cat no. 363170) (weight/volume) in dPBS (Sigma cat no.D8537)) for 2 hrs at room temperature. Blocking buffer was then removed by rapid decanting. Antibodies were diluted by consecutive 2-fold serial dilutions in blocking buffer and applied to each plate at 100 ul per well. Plates were incubated for 1 hour at RT and then washed as described above.
as §1

[3] = target: T2, Recombinant human Dkk-1 (R&D Systems …); experiment: SPR BIAcore 25C, JC18 captured by anti-mouse IgG, Dkk-1 injected
Experimental: (§2) For this assay, polyclonal anti-mouse IgG was amine-coupled to the BIAcore chip. Anti-Dkk-1 antibody JC18 is at 6.53 μg/ml, and was captured for 1 min at 5 μl/min. A five-fold series dilution of human, mouse or rat Dkk-1 (R&D Systems; from 0.4-250 nM) was injected for 1 min at 50-100 μl/min. Dissociation was monitored for 3-5 min. The chip was regenerated with two 30-sec pulses of 100 mM H₃PO₄.

[4] = target: T4, recombinant rat Dkk-1 (R&D systems Cat No. 4010-DK/CF) (rat); experiment: as above
T4 construct: Bought
Experimental: as §2

[5] = target: T3, recombinant mouse Dkk-1 (R&D systems …); experiment: as above
Experimental: as §2

[6] = target: T5, recombinant human Dkk3 (R&D systems Cat No. 1118-DK/CF) (human, UniProt Q9UBP4 22-350); experiment: ELISA, plate coated with human DKK-3 at 1.0 ug/ml, JC18 titrated, OD read
T5 construct: Bought; also called hDkk-3
T5 sequence (Q9UBP4 22-350 limits assumed): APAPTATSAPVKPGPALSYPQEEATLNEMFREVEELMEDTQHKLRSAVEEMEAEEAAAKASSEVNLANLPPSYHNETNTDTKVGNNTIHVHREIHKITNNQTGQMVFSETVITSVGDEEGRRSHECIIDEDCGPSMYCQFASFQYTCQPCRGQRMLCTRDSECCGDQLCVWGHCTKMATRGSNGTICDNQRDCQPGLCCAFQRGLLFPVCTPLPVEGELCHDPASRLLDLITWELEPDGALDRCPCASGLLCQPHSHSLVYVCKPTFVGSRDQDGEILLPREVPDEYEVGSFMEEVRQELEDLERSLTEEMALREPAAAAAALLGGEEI

[7] = target: T2, Recombinant human Dkk-1 (R&D Systems …); experiment: SPR 37C (BIAcore/ProteOn), hDkk-1 series over captured IgG (taken so as kon is printed)
[8] = target: T2, Recombinant human Dkk-1 (R&D Systems …); experiment: theoretical: koff / estimated kon 1e6 1/Ms (SPR screening 37C)
Procedure, shortened: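 Fab variants in filtered E. coli lysates injected at 37 °C over biotinylated human Dkk-1 captured on streptavidin (BIAcore, ~500-600 RU, HBS-EP) or NeutrAvidin chips (ProteOn, 150-3000 RU, PBS/BSA/Tween-20). Dissociation followed 1-5 min or 20 min; KD taken as koff over an estimated kon of 1e6 1/Ms.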

[9] = target: T2, Recombinant human Dkk-1 (R&D Systems …); experiment: SPR screening 37C (BIAcore/ProteOn), Fab lysate over biotinylated human Dkk-1
Procedure, shortened: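 Fabs from filtered E. coli lysates injected at 37 °C over biotinylated human Dkk-1: BIAcore SA chip (~500–600 RU, HBS-EP, 1 min injection, 1–5 min dissociation) or ProteOn NLC chip (150–3000 RU, PBS/BSA/Tween-20, 50 s injection, 20 min dissociation). Binding level and off-rate screened.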

Binder	Kd [7] [nM]	koff [7] [s⁻¹]	kon [7] [M⁻¹ s⁻¹]	Kd [8] [nM]	koff [9] [s⁻¹]	other results
B1	–	–	–	–	–	binding result [1]: no binding (tested: 5 ug/ml); EC50 (read off the curve) [2]: ~3 ng/mL; Kd [3]: 0.65 nM; koff [3]: 0.00207 s⁻¹; kon [3]: 3.18e+06 M⁻¹ s⁻¹; Kd [4]: 0.72 nM; koff [4]: 0.00275 s⁻¹; kon [4]: 3.8e+06 M⁻¹ s⁻¹; Kd [5]: 1.5 nM; koff [5]: 0.00254 s⁻¹; kon [5]: 1.74e+06 M⁻¹ s⁻¹; binding result [6]: no binding (tested: 5 ug/ml)
B2	0.008	8.55e-05	1.13e+07	–	–	–
B3	0.017	8.55e-05	5.18e+06	–	–	–
B4	–	–	–	7.7	0.0077	–
B5	–	–	–	16.9	0.0169	–
B6	–	–	–	7.8	0.0078	–
B7	–	–	–	5.51	0.00551	–
B8	0.03	8.55e-05	2.88e+06	–	–	–
B9	0.037	8.55e-05	2.31e+06	–	–	–
B10	–	–	–	2.88	0.00288	–
